According to the supplement of paper PMC9876800:

Test system: peptide library, one residue held at a place counted from the S/T acceptor
Assay: relative phosphorylation of the sub-library (ratio to the mean residue at this position); higher = residue favoured
In short: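 In 384-well plates, purified recombinant kinases (human or orthologue constructs) were incubated for 90 min under kinase-specific conditions with 50 μM biotinylated degenerate peptide sub-libraries and 50 μM ATP spiked with γ-32P-ATP. Each sub-library fixed a single residue at one position around a central Ser/Thr. Relative sub-library phosphorylation, measured by phosphorimaging and densitometry of streptavidin membrane spots, is given as a ratio to the mean residue at that position.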

Sequence of PDK1, construct: Full length, human (Q15118 whole entry, looked up): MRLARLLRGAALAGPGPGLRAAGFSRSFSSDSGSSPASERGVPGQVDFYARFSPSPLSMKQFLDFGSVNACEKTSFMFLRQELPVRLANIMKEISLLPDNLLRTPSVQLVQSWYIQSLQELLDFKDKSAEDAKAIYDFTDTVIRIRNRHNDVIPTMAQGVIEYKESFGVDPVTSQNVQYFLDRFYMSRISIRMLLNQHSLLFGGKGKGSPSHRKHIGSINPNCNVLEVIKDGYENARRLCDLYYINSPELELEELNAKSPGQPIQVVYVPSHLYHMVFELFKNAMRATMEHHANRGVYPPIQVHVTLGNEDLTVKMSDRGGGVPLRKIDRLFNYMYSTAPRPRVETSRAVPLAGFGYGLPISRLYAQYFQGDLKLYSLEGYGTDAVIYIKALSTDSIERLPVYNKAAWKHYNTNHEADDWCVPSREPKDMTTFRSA
Sequence of PAK4, construct: aa295-end, human (O96013 295-591, looked up): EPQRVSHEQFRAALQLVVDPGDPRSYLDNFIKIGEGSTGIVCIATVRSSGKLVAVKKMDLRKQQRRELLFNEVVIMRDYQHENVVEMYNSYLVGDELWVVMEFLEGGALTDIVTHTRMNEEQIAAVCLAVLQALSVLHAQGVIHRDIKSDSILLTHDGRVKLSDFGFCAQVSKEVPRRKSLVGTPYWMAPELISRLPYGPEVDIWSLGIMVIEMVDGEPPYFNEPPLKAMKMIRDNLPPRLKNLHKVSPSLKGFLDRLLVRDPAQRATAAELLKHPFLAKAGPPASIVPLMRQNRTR
Sequence of NIM1K, construct: Full length, human (Q8IY84 whole entry, looked up): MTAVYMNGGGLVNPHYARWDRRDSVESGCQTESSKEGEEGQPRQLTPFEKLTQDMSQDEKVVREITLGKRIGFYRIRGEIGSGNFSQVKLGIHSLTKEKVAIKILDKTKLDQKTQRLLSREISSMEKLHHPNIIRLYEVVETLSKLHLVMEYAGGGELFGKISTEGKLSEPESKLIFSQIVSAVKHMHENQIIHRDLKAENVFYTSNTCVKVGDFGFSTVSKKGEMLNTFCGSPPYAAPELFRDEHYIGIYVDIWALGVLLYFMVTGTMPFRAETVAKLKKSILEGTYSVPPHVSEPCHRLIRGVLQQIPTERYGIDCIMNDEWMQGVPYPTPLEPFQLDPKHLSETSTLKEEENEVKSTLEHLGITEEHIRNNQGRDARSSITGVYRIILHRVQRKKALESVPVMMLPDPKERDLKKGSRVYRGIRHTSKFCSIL

NIM1K, construct: Full length, human (from UniProt Q8IY84)
relative phosphorylation
Settings | at +1 | at +2 | at +3 | at +4 | at -1 | at -2 | at -3 | at -4 | at -5
A fixed | 1.02 | 1.1 | 0.686 | 0.823 | 1.14 | 1.35 | 0.839 | 1.14 | 1.43
D fixed | 0.328 | 0.286 | 1.08 | 0.716 | 0.362 | 0.331 | 0.475 | 0.831 | 0.765
E fixed | 0.455 | 0.311 | 0.495 | 0.844 | 0.331 | 0.307 | 0.502 | 0.762 | 0.602
F fixed | 1.17 | 1.55 | 1.46 | 0.97 | 0.571 | 1.7 | 0.769 | 0.709 | 0.63
G fixed | 0.75 | 0.407 | 0.548 | 0.799 | 3.74 | 1.27 | 0.883 | 1.33 | 1.12
H fixed | 0.924 | 0.848 | 1.15 | 0.801 | 0.966 | 1.15 | 1.06 | 1.06 | 1.26
I fixed | 0.801 | 1.32 | 0.626 | 1.37 | 0.503 | 0.705 | 0.681 | 0.749 | 0.778
K fixed | 0.686 | 0.545 | 0.552 | 1.12 | 1.37 | 1.03 | 1.21 | 1.57 | 1.73
L fixed | 0.975 | 1.52 | 1.15 | 1.98 | 0.818 | 0.932 | 0.84 | 0.958 | 0.869
M fixed | 1.83 | 1.3 | 0.82 | 1.31 | 0.926 | 0.997 | 0.966 | 0.956 | 0.781
N fixed | 0.722 | 0.496 | 1.12 | 0.697 | 0.842 | 1.06 | 0.797 | 1.25 | 1.2
P fixed | 0.376 | 0.51 | 0.404 | 0.722 | 0.76 | 0.361 | 0.823 | 0.87 | 0.852
Q fixed | 2.16 | 0.607 | 0.549 | 0.795 | 1.05 | 0.737 | 0.887 | 0.935 | 0.868
R fixed | 1.05 | 0.633 | 0.666 | 1.24 | 1.44 | 1.38 | 3.47 | 1.41 | 1.41
V fixed | 1.2 | 1.48 | 0.645 | 1.42 | 0.693 | 0.888 | 0.872 | 0.712 | 0.917
W fixed | 1.16 | 2.06 | 3.85 | 0.717 | 0.709 | 1.7 | 0.97 | 0.863 | 1.04
Y fixed | 1.39 | 2.04 | 1.19 | 0.686 | 0.775 | 1.1 | 0.957 | 0.884 | 0.758
pThr fixed | 0.564 | 0.357 | 0.387 | 0.81 | 0.341 | 0.522 | 0.655 | 0.711 | 0.72
pTyr fixed | 0.365 | 0.345 | 0.367 | 0.644 | 0.459 | 0.475 | 0.619 | 0.629 | 0.543

PAK4, construct: aa295-end, human (from UniProt O96013)
relative phosphorylation
Settings | at +1 | at +2 | at +3 | at +4 | at -1 | at -2 | at -3 | at -4 | at -5
A fixed | 0.553 | 4.9 | 0.88 | 0.922 | 0.732 | 0.279 | 0.735 | 1.12 | 1.3
D fixed | 0.199 | 0.382 | 0.663 | 0.928 | 0.373 | 0.145 | 0.295 | 0.611 | 0.77
E fixed | 0.194 | 0.23 | 0.814 | 0.754 | 0.273 | 0.136 | 0.265 | 0.603 | 0.58
F fixed | 1.3 | 0.849 | 1.81 | 0.823 | 1.06 | 0.445 | 0.54 | 0.844 | 0.852
G fixed | 0.327 | 0.715 | 0.996 | 1.13 | 0.534 | 0.244 | 0.739 | 1.35 | 1.29
H fixed | 0.9 | 0.663 | 1.12 | 1.23 | 1.34 | 0.76 | 0.801 | 1.17 | 1.09
I fixed | 1.79 | 1.14 | 1.36 | 0.8 | 0.563 | 0.284 | 0.415 | 0.655 | 0.727
K fixed | 0.621 | 0.267 | 0.544 | 0.817 | 1.45 | 0.725 | 3.15 | 1.51 | 1.53
L fixed | 1.38 | 0.673 | 1.35 | 0.788 | 1.18 | 0.244 | 0.49 | 0.74 | 0.71
M fixed | 1.96 | 0.588 | 1.1 | 0.877 | 1.38 | 0.334 | 0.599 | 0.913 | 0.714
N fixed | 0.366 | 0.542 | 0.542 | 0.91 | 0.967 | 0.287 | 0.77 | 0.873 | 1
P fixed | 0.215 | 0.667 | 0.797 | 2.16 | 0.251 | 0.634 | 0.684 | 0.868 | 1.03
Q fixed | 0.694 | 0.433 | 0.682 | 1.02 | 1.06 | 0.641 | 0.96 | 0.902 | 0.897
R fixed | 0.964 | 0.297 | 0.615 | 0.983 | 2.76 | 10 | 4.61 | 1.98 | 1.81
V fixed | 1.47 | 2.1 | 1.07 | 0.761 | 0.579 | 0.282 | 0.413 | 0.66 | 0.75
W fixed | 2.49 | 0.806 | 1.45 | 1.21 | 1.19 | 0.417 | 0.876 | 1.27 | 0.987
Y fixed | 1.57 | 1.75 | 1.2 | 0.894 | 1.3 | 1.1 | 0.651 | 0.941 | 0.961
pThr fixed | 0.339 | 0.403 | 0.705 | 1.45 | 0.233 | 0.218 | 0.398 | 0.688 | 0.662
pTyr fixed | 0.514 | 0.767 | 1.34 | 1.19 | 0.261 | 0.232 | 0.402 | 0.579 | 0.65

PDK1, construct: Full length, human (from UniProt Q15118)
relative phosphorylation
Settings | at +1 | at +2 | at +3 | at +4 | at -1 | at -2 | at -3 | at -4 | at -5
A fixed | 0.64 | 0.794 | 0.777 | 0.904 | 1.25 | 0.94 | 0.972 | 0.989 | 0.951
D fixed | 0.63 | 1.03 | 1.5 | 1.01 | 1.58 | 0.752 | 0.799 | 0.88 | 0.943
E fixed | 0.568 | 0.888 | 1.1 | 0.856 | 0.681 | 0.7 | 0.677 | 0.818 | 0.881
F fixed | 1.18 | 1.15 | 1.64 | 1.17 | 1.04 | 1.26 | 1.28 | 1.18 | 1.24
G fixed | 0.641 | 1.71 | 1.08 | 1.05 | 1.11 | 1.42 | 0.928 | 1.14 | 1.12
H fixed | 0.804 | 1.09 | 0.87 | 1.06 | 1.25 | 1.26 | 1.08 | 0.957 | 1.1
I fixed | 2.06 | 0.767 | 0.932 | 1 | 0.793 | 0.852 | 1.1 | 0.962 | 0.945
K fixed | 0.624 | 0.808 | 0.622 | 0.794 | 0.655 | 0.704 | 0.77 | 0.832 | 0.824
L fixed | 2.3 | 0.889 | 0.883 | 0.884 | 0.924 | 1.02 | 1.07 | 0.982 | 1.05
M fixed | 1.34 | 0.989 | 1.02 | 1 | 0.976 | 1.08 | 1.12 | 1.19 | 1.1
N fixed | 0.625 | 0.935 | 0.809 | 1.02 | 1.29 | 0.787 | 0.867 | 0.878 | 0.981
P fixed | 0.607 | 0.902 | 1.1 | 1.08 | 0.864 | 0.799 | 0.912 | 1.02 | 0.722
Q fixed | 0.727 | 1.04 | 0.803 | 0.884 | 0.801 | 0.869 | 0.852 | 0.883 | 0.679
R fixed | 0.728 | 1.11 | 0.897 | 0.967 | 0.751 | 0.986 | 0.851 | 0.988 | 0.95
V fixed | 1.28 | 0.813 | 0.948 | 0.926 | 0.823 | 0.83 | 0.94 | 0.831 | 0.917
W fixed | 1.25 | 1.08 | 1.03 | 1.38 | 1.21 | 1.73 | 1.78 | 1.47 | 1.6
Y fixed | 1.18 | 1.15 | 1.64 | 1.17 | 1.04 | 1.26 | 1.28 | 1.18 | 1.24
pThr fixed | 0.538 | 0.662 | 0.863 | 0.876 | 0.572 | 0.524 | 0.666 | 0.846 | 0.933
pTyr fixed | 0.723 | 0.951 | 0.689 | 0.919 | 0.694 | 0.892 | 0.885 | 1.2 | 1.05

PRKCE, construct: Full length, human (from UniProt Q02156)
relative phosphorylation
Settings | at +1 | at +2 | at +3 | at +4 | at -1 | at -2 | at -3 | at -4 | at -5
A fixed | 0.507 | 0.48 | 0.795 | 0.905 | 1.06 | 0.774 | 0.669 | 1.12 | 1.16
D fixed | 0.169 | 0.162 | 0.342 | 0.375 | 0.373 | 0.296 | 0.223 | 0.455 | 0.383
E fixed | 0.165 | 0.138 | 0.347 | 0.334 | 0.312 | 0.308 | 0.235 | 0.558 | 0.35
F fixed | 1.7 | 0.528 | 0.831 | 0.561 | 0.588 | 0.69 | 0.691 | 0.783 | 1.28
G fixed | 0.525 | 0.366 | 1.01 | 0.967 | 1.59 | 0.908 | 0.731 | 1.08 | 1.05
H fixed | 0.66 | 1.02 | 1.25 | 1.16 | 0.936 | 1.1 | 1.09 | 1.16 | 1.12
I fixed | 1.43 | 0.515 | 0.619 | 0.6 | 0.44 | 0.393 | 0.435 | 0.689 | 0.935
K fixed | 2.1 | 4.18 | 2.99 | 3.19 | 2.52 | 2.35 | 2.17 | 2.11 | 1.67
L fixed | 1.15 | 0.441 | 0.746 | 0.567 | 0.679 | 0.425 | 0.466 | 0.639 | 0.934
M fixed | 1.18 | 0.566 | 0.581 | 0.62 | 0.813 | 0.528 | 0.545 | 0.833 | 0.744
N fixed | 0.577 | 0.501 | 0.661 | 0.921 | 0.997 | 0.834 | 0.552 | 0.822 | 0.665
P fixed | 0.473 | 0.357 | 0.604 | 1.07 | 1.21 | 0.623 | 0.708 | 0.919 | 0.921
Q fixed | 1.01 | 0.543 | 0.7 | 0.931 | 0.949 | 0.957 | 0.64 | 0.894 | 0.753
R fixed | 2.4 | 4.74 | 3.01 | 2.59 | 2.49 | 4.46 | 5.89 | 2.3 | 1.93
V fixed | 1.32 | 0.537 | 0.67 | 0.634 | 0.611 | 0.529 | 0.413 | 0.808 | 0.757
W fixed | 0.717 | 0.516 | 0.891 | 0.961 | 0.471 | 1.12 | 0.613 | 1.02 | 1.39
Y fixed | 0.928 | 1.4 | 0.95 | 0.607 | 0.968 | 0.701 | 0.934 | 0.82 | 0.956
pThr fixed | 0.851 | 0.471 | 0.573 | 0.688 | 0.378 | 0.561 | 0.657 | 0.799 | 0.932
pTyr fixed | 0.505 | 0.525 | 0.731 | 0.569 | 0.528 | 0.535 | 0.678 | 0.625 | 0.989
